What was measured:
[1] = tested on: CcpA2CS (Staphylococcus aureus Newman); test: BLI; details: BLI: 25 mM Tris-HNO3, 80 mM NaNO3, 35 mM KNO3, 10 mM Mg(NO3)2, 0.1% Triton X-100, 10% glycerol, 0.1% BSA, 0.01% Tween 20, pH 7.5, 37 C; EMSA: 35 nM DNA in …
[2] = tested on: CcpA (SaCcpA) (Staphylococcus aureus Newman); test: BLI; details: no Ag+; 10 mM Mg2+; BLI: 25 mM Tris-HNO3, 80 mM NaNO3, 35 mM KNO3, 10 mM Mg(NO3)2, 0.1% Triton X-100, 10% glycerol, 0.1% BSA, 0.01% Tween 20, pH 7.5, 37 C; EMSA: 35 nM DNA in …
[3] = tested on: CcpA2CS (Staphylococcus aureus Newman); test: BLI; details: BLI: 25 mM Tris-HNO3, 80 mM NaNO3, 35 mM KNO3, 10 mM Mg(NO3)2, 0.1% Triton X-100, 10% glycerol, 0.1% BSA, 0.01% Tween 20, pH 7.5, 37 C; EMSA: 35 nM DNA in …; remark: listed apart in the source
[4] = biological target: T1, CcpA (SaCcpA) (Staphylococcus aureus Newman) (UniProt P99175); test: EMSA; details: BLI: 25 mM Tris-HNO3, 80 mM NaNO3, 35 mM KNO3, 10 mM Mg(NO3)2, 0.1% Triton X-100, 10% glycerol, 0.1% BSA, 0.01% Tween 20, pH 7.5, 37 C; EMSA: 35 nM DNA in …
T1 sequence: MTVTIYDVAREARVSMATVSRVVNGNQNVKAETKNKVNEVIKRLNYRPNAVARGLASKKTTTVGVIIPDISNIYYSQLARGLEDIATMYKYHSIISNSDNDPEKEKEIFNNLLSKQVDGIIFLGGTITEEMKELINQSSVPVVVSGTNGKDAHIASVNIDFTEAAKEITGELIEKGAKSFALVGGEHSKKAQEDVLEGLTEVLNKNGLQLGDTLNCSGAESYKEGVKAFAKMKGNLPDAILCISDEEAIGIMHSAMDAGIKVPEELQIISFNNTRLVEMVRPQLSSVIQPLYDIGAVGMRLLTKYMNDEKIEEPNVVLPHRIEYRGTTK

[5] = biological target: the molecule itself; test: SEC; size-exclusion chromatography of purified CcpA without Ag+
[6] = biological target: the molecule itself; test: SEC; size-exclusion chromatography of purified CcpA pre-incubated with Ag+ (0.6, 1.2, 2.0 molar equivalents; CcpA^2CS with 2.0)

Question: How did the Kd [1] turn out when biotinylated pckA promoter probe was run?
Answer: 20.7 nM

Question: What about the Kd [2] of the same molecule?
Answer: 16.1 nM

Question: And the Kd [3]?
Answer: 15.1 nM

Question: For “ACTCGTACCACCAGTCACTATAAAATGTTGTCCTTTCATCAATTAACCTTCCTTTTCAATTATATAGAATGCAATTTATCAACTTTACATAATTGAGACAAGTTGATTATCTTTCCTAATATATATACAATAATAAGAAAATATAACATACAAATCAAAAACTAAAGGGATGTGACGTTAATGAAACTCG (double strand) [proC probe]”, which binding [4] is on record?
Answer: no binding

B1: Staphylococcus aureus catabolite control protein A (CcpA), wild type (natural protein, UniProt Q5HF38 1-329, looked up)
chain: MTVTIYDVAREARVSMATVSRVVNGNQNVKAETKNKVNEVIKRLNYRPNAVARGLASKKTTTVGVIIPDISNIYYSQLARGLEDIATMYKYHSIISNSDNDPEKEKEIFNNLLSKQVDGIIFLGGTITEEMKELINQSSVPVVVSGTNGKDAHIASVNIDFTEAAKEITGELIEKGAKSFALVGGEHSKKAQEDVLEGLTEVLNKNGLQLGDTLNCSGAESYKEGVKAFAKMKGNLPDAILCISDEEAIGIMHSAMDAGIKVPEELQIISFNNTRLVEMVRPQLSSVIQPLYDIGAVGMRLLTKYMNDEKIEEPNVVLPHRIEYRGTTK
notes: catabolite control protein A (CcpA) of Staphylococcus aureus; has two cysteines, Cys216 and Cys242; Dimer by SEC without Ag+; written as the protomer for the rows of self-association; Host, tags and limits are in the ESI; also called SaCcpA; WT CcpA
Question: What does the source list for B1?
Answer: stoichiometry N [5]: 2; stoichiometry N [6]: 4

B2: Staphylococcus aureus CcpA C242S mutant (natural protein)
chain: MTVTIYDVAREARVSMATVSRVVNGNQNVKAETKNKVNEVIKRLNYRPNAVARGLASKKTTTVGVIIPDISNIYYSQLARGLEDIATMYKYHSIISNSDNDPEKEKEIFNNLLSKQVDGIIFLGGTITEEMKELINQSSVPVVVSGTNGKDAHIASVNIDFTEAAKEITGELIEKGAKSFALVGGEHSKKAQEDVLEGLTEVLNKNGLQLGDTLNCSGAESYKEGVKAFAKMKGNLPDAILSISDEEAIGIMHSAMDAGIKVPEELQIISFNNTRLVEMVRPQLSSVIQPLYDIGAVGMRLLTKYMNDEKIEEPNVVLPHRIEYRGTTK
Question: With B2 as the molecule, how does the “stoichiometry N” value [6] read?
Answer: 4

B3: Staphylococcus aureus CcpA C216S mutant (natural protein)
chain: MTVTIYDVAREARVSMATVSRVVNGNQNVKAETKNKVNEVIKRLNYRPNAVARGLASKKTTTVGVIIPDISNIYYSQLARGLEDIATMYKYHSIISNSDNDPEKEKEIFNNLLSKQVDGIIFLGGTITEEMKELINQSSVPVVVSGTNGKDAHIASVNIDFTEAAKEITGELIEKGAKSFALVGGEHSKKAQEDVLEGLTEVLNKNGLQLGDTLNSSGAESYKEGVKAFAKMKGNLPDAILCISDEEAIGIMHSAMDAGIKVPEELQIISFNNTRLVEMVRPQLSSVIQPLYDIGAVGMRLLTKYMNDEKIEEPNVVLPHRIEYRGTTK
Question: How did the “stoichiometry N” value [6] turn out when B3 was run?
Answer: 4
